Laboratory results: PMC8287922
Read-outs that look alike come from different tables or passages of the source.

Columns and labels:
Experiment in all cases: EMSA
Pax7 PD-HD [1] = target: T1, Pax7 PD-HD (mouse (Mus musculus), UniProt P47239 35-273)
Pax7 PD = Pax7 PD (mouse (Mus musculus), UniProt P47239 35-158)
Pax7 PD-L = Pax7 PD-L (mouse (Mus musculus), UniProt P47239 35-215)
Pax7 HD = Pax7 HD (mouse (Mus musculus), UniProt P47239 215-273)
Pax7 PD-HD [2] = target: T1, Pax7 PD-HD; remark: listed apart in the source
Pax7 PD-HD homodimer = Pax7 PD-HD homodimer (mouse (Mus musculus), UniProt P47239 35-273)
Pax7 PD-HD homodimer, sequence (P47239 35-273): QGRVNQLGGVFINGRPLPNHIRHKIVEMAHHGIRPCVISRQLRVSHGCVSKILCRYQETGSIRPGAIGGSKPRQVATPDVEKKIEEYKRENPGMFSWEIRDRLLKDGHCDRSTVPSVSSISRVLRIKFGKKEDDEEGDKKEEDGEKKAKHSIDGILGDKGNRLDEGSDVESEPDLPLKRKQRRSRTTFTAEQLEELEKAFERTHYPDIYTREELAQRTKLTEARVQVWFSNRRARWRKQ

Pax7 PD-HD [3] = target: T1, Pax7 PD-HD; remark: listed apart in the source
Pax7 PD-HD [4] = target: T1, Pax7 PD-HD; remark: listed apart in the source

T1 sequence (P47239 35-273): as above
Pax7 HD, sequence (P47239 215-273): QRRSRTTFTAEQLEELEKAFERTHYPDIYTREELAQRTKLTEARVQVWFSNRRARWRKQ
Pax7 PD, sequence (P47239 35-158): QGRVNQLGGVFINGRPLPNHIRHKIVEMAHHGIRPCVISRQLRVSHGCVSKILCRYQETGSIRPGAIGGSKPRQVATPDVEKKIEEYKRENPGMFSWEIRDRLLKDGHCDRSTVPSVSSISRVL
Pax7 PD-L, sequence (P47239 35-215): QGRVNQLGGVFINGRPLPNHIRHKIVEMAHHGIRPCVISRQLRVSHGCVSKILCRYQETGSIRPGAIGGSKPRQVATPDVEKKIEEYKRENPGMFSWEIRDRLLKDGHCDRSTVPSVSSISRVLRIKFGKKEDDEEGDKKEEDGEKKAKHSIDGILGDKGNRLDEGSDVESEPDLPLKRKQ

B1: PD (mutated HD) (dsDNA)
DNA 1: TCGACGCAGATCCGTGACGCCAGTTCCGACCTCGA
DNA 2: TCGAGGTCGGAACTGGCGTCACGGATCTGCGTCGA
binding result (Pax7 PD-HD [1]): binds
binding result (Pax7 PD): binds
binding result (Pax7 PD-L): binds

B2: HD (mutated PD) (dsDNA)
DNA 1: TCGACGCAGATCGTCCGCTAATTCCAACGACCTCGA
DNA 2: TCGAGGTCGTTGGAATTAGCGGACGATCTGCGTCGA
binding result (Pax7 HD): no binding

B3: H.I-2 (dsDNA)
DNA 1: TCGACCAGATCGTCCGCTAATTACCAACGACCTCGA
DNA 2: TCGAGGTCGTTGGTAATTAGCGGACGATCTGGTCGA
binding result (Pax7 PD-HD [2]): binds
binding result (Pax7 HD): no binding

B4: H.I2 (dsDNA)
DNA 1: TCGACTCGTCCGCTAATTGATTATCCAACGACCTCGA
DNA 2: TCGAGGTCGTTGGATAATCAATTAGCGGACGAGTCGA
binding result (Pax7 HD): binds
binding result (Pax7 PD-HD homodimer): binds
binding result (Pax7 PD-HD [3]): binds

B5: Composite HP.E0 (dsDNA)
DNA 1: TCGACGCAGATCCGTGACTAATGTTCCGACCTCGA
DNA 2: TCGAGGTCGGAACATTAGTCACGGATCTGCGTCGA
binding result (Pax7 PD): binds
binding result (Pax7 PD-HD [4]): binds
